Test results taken from the DeepSol protein solubility set.

Assay: soluble on expression in E. coli; label from the status in PepcDB or PDB records

**Q.** For “RGDSLNYRLLRPEVEKTGLQYPLVLFLHGAGERGSDNEKQLTHGGQMFLNPVNREKYPAFVLVPQCPEKDYWAYTSRPSSFIPSEMPVGQEITPVLRAVKELLDTYLDLPQVDRNRIYVVGLSMGGMATYDLAVRFPDTFAAAVPICGTVNPVRLADAANVRFRIFHGDADNVVPVEGSREAYKALKNLGAEVEYIEFPGCNHGSWNPAFNYPGFMEWLFAQRK”, which “soluble on expression in E. coli” value is on record?
**A.** not soluble

**Q.** With “LLFLSRERGPSQSTPSLISSAAPTMIKMEVNGHGKAMALGEGPPLPAGVQVPAGPQTVMGPGLAPMLAPPPRRTPKQHNCQSCGKTFSSASALQIHERTHTGEKPFGCTICGRAFTTKGNLKVHMGTHMWNNAPARRG” as the sequence, how does the “soluble on expression in E. coli” value read?
**A.** soluble

**Q.** For “MGRKISVIIPTHYRNDLLPTAIESVARQDYEPVELIVVDDSGEGYAEPVLSEYDEVIDRPIIKEENEGWQAAYTTGIEQSTGEYIQFLDDDDYLYETKLKKTANVLDQNPEVGVSYCGVVRGDEGDFYPKQEVSGHFLEPALRFQTFPMWTGSMLMEREVLCDCLPMAGMGEEDDLDIELGDTDLKIELAKRTKADYVDECLTFYRQEGNKLWTGKRRFKKILQNIRHQKDIYNQYPEIRRDLLAEWYERQGRNYLNEQIWSAQAIQCFIKSAYYERKQKFPRIIETLAAILGRPGVMSAVRVKRTLLDGLEHHHHHH”, which “soluble on expression in E. coli” value is on record?
**A.** not soluble

**Q.** With “GPLGSMSAAIAKPSAKPSAHVDPKSAPLKEIPDVLVDPRTMKRYMRGRFLGKGGFAKCYEITDMDTKEVFAGKVVPKSMLLKPHQKEKMSTEIAIHKSLDNPHVVGFHGFFEDDDFVYVVLEICRRRSLLELHKRRKAVTEPEARYFMRQTIQGVQYLHNNRVIHRDLKLGNLFLNDDMDVKIGDFGLATKIEFDGERKKTLCGTPNYIAPEVLCKKGHSFEVDIWSLGCILYTLLVGKPPFETSCLKETYIRIKKNEYSVPRHINPVASALIRRMLHADPTLRPSVAELLTDEFFTSGYAPMRLPTSCLTVPPRFS” as the sequence, how does the “soluble on expression in E. coli” value read?
**A.** soluble

**Q.** For “MGSDKIHHHHHHMLLTRTQIRRLVYAHGREILEHDHMAIERVCYQHGVVTTFAHSIRVACLSVWLADRLHLWNRVDLRSLIRAALLHDYFLYDWHDWDNGTHRLHGFTHGETAMRNAIRDFKLNQIERDSIEHHMFPLTPYPPKYIEGYLVTAADKISATKETLSFDRFDKPASEQPTDRS”, which “soluble on expression in E. coli” value is on record?
**A.** not soluble

**Q.** With “MGHHHHHHSHMKPSGEDQAALAAGPWEECFQAAVQLALRAGQIIRKALTEEKRVSTKTSAADLVTETDHLVEDLIISELRERFPSHRFIAEEAAASGAKCVLTHSPTWIIDPIDGTCNFVHRFPTVAVSIGFAVRQELEFGVIYHCTEERLYTGRRGRGAFCNGQRLRVSGETDLSKALVLTEIGPKRDPATLKLFLSNMERLLHAKAHGVRVIGSSTLALCHLASGAADAYYQFGLHCWDLAAATVIIREAGGIVIDTSGGPLDLMACRVVAASTREMAMLIAQALQTINYGRDDEK” as the sequence, how does the “soluble on expression in E. coli” value read?
**A.** not soluble

**Q.** Which “soluble on expression in E. coli” value does the source give for “MGSDKIHHHHHHMAKAKTQFICSNCGYTSARYLGRCPNCGQWNTLIEEKIVPEAVVNRKARISFDGRVAKPKKISEISGNELPRTRTGLRELNRVLGGGIVPGSLILIGGDPGIGKSTLMLQVSGQLAENGGSVLYVSGEESDNQIKLRADRLGVGSDSFIVYPETDMEQIKSIVQQIEPDYLVIDSVQTMQEPDLQSPIGSVAQIREVTANLMQIAKTNAITVFIVGHVTKDGSIAGPKILEHMVDTVLYFEGDANYKYRILRTVKNRFGSTNELGIFEMRDHGLREVANPSEIFLEERLAGATGSAITASMEGSRPILVEVQALVAPTVFGNAQRVTTGVDRNRVSQILAVLEKHANLLLQNQDAHVRITGGVKIDEPAADLAIALAVASSYHEKATNASDVFLGEVGLGGEVRSISLIEDRLKEIAKLGFKRAIVSKNNLAGIDLPKGLQVIGVSTLEEALKLGLDLNRASKQKGFADL” here?
**A.** not soluble

**Q.** Which “soluble on expression in E. coli” value does the source give for “MGSDKIHHHHHHMFRPQDDFTYLMPVHFGGGKFDPETLVTQKATALSLSFETERDLLENYIPEGFELLAPEVQVAFNKFTEINWLHGGQYNLINVAAPVRFHGKKDELDGAYTLVVWENKTAPILGGREQTGIPKIYADIEDLHIVRPHFATTVSYEGNTFLNMDFEATGSITGRDLDALKSQFLTMNTLGWRYIPKVGAPGAELSQFVLYPQGMEVETAEVGKGSLKWTELTPMQSPAQYYIVNSLASLPIKRVTQAVLVEGRAILRAMGARVIE” here?
**A.** not soluble

**Q.** With “MYNALYLYCSEYKYEDSIMTISIRLPSDLETRLNNLAAKTGRTKSFYLREIIERGIEEAEDYYLASQVRERVRKGEGTFYSSEEVRKELGLDD” as the sequence, how does the “soluble on expression in E. coli” value read?
**A.** not soluble

**Q.** With “MSLAEQLAIADLQVDIKQIPLKQPFVTALHRVDAVNAVRVTVRLANGVTGVGTCTPNEKVTGDSLSSARAVIEETIKPLVLGKNLTDWKELLNTVKTSIVHNAPAKAAVEIALYNTRANLFGLTLSQLLGGKGGSVETDYTISIGKAEQMIADAQKMVDQGFKTLKLKLGAGHLKRDIKLVEDLAYAAGPMVHLRLDMNQACDVRQTMQAAEYWHKQGLLIDFIEQPVPAWDLDSMAYLTRHSPYPIMADESVESYEDAQRVLAKNACDYINIKLMKTGGLSEAQKINDLAESRGVPTMVGSMIESIESLAAACAFYRANPNTIFADLDAIFMVDQDPDLNSYAECVGDNIVVREGHHHHHH” as the sequence, how does the “soluble on expression in E. coli” value read?
**A.** soluble

**Q.** With “MSLADLQKNFQTSFRDAMASCAAGVHVITTDGAAGRYGITMTAVAPVTDEPPTVMLCINRSARIIPILSENGSLCINTLADEHQDVAEHFAGLTGLSPEERFAYHIWHRGKTGQLEIEGALAHLHGHIVGKHEIGTHFVFYVRLDEIKNCGCKRPALLYFRRQFRFLDEGGSHHHHHH” as the sequence, how does the “soluble on expression in E. coli” value read?
**A.** soluble

**Q.** With “MEDFNRRAEELDQVEKNVSLGLKKIQDEMDSIQLEVEPDDVEITSTKRGFWEHDITNLSPFPVVCRVRATSPSMFVVNKNVFLLKPMDFFKLMISRKPGQIRSHHLKIDVTQFVDTFNPINLLDYFIASNPFKTFVVRYHGAPRYWSDALEMNSWLTGEQLNEQWEKEMKKTSQEKKSSLETSEVSSVNEFVDAEEDNFPVQRAAMNITNVLTVASQVPDESNKNEPDSDIDSVVSGTIDSELANLKI” as the sequence, how does the “soluble on expression in E. coli” value read?
**A.** not soluble

**Q.** With “MDSLKGMAIFATVVDKGSMAAAAQSLGMTPSAVSQQIRKLESRAQVTLLHRTTRRLTLTEAGEAFYRSCAQMLAIAEEAERRLGEWRDAPVGELRLAAPVGFSGTLITQALKPLLENHRQLRLQLFFQDERIDLVAERIDLAIRVGNLADSSLVARHLGDWSSVLCAAPAYLRQRAPINRPEQLTEVDWISLNTSNHLNHLTLSGPGGEVCKLRLEPRVAANGMLAVRQFTLDGLGVSYQPLPEVRDALNDGRLQQLLPEWRIPGLGIYAVTPRREAQPAKVKVAIEALRRAFATDGDERWS” as the sequence, how does the “soluble on expression in E. coli” value read?
**A.** not soluble

**Q.** For “MAEQYSEINTDTLERVTEIFKALGDYNRIRIMELLSVSEASVGHISHQLNLSQSNVSHQLKLLKSVHLVKAKRQGQSMIYSLDDIHVATMLKQAIHHANHPKESGL”, which “soluble on expression in E. coli” value is on record?
**A.** soluble

**Q.** For “GMSAKDVFHQVVKIALEKDGWQITNDPLTISVGGVNLSIDLGAEKLIAAEREGEKIAVEVKSFLERSSAISEFHTALGQFINYRGALRRRQPERVLYLAVPLTTYKTFFQLDFPKEMIAENQVKMLIYDVEQEVIFQWIN”, which “soluble on expression in E. coli” value is on record?
**A.** soluble

**Q.** For “MKECKKCKSNEYTNKQLVMMINECGHPLCKNCVDNIFALNSGNCHVCNRVLRKNNFREQIYEDPLIDKETFLRRKLRKIYNLKQDDFENLREFGDYQERFETVVYNLVFETNVNETNAEIQAFEEKHKEQIDRNKRRLDDDQKWIEDQLREERAMKARMTDHMEMDAKEQEAASAVTDTRKIMDELRDSNVAAEVILDRERKKQIEKELEEKEEQEKRKRRNKEMLQTRKRAAENMSFNTVIRVAGRAYVHQPLELVINGPPMPNVSEIEALGYLAHIRQPTAEYIAGGYTPMLGCSRALFEARIDLFSF”, which “soluble on expression in E. coli” value is on record?
**A.** not soluble

**Q.** With “MGSDKIHHHHHHMQSNLVMFPIVEVVRPGTQVKETNSTDYEGAEQQFLLLLATEDLDDNLDRQAAIVSDFEQAVSRAINGAYKRECQDDLAHRFLQRILYRINRLNLFWFDDLRQYTNERSLYLSSCRNQIEAAWQKWELAQVDVAAIQKLDVKQALIDRADADLDPPLSAASRYIREEMSEAGYRQLLAIGSFDGLVEGSRLSRILGGAANEVQCTLVRVLLEEYGNGRLSRKHSTFFAQMLAEFGMNTTPEAYFDLVPWEVLACANHNFLLTERRRYYLRYSGGLTYFEVAGPAAYRNYLAAAQRLGLSNAAMGYWELHIREDERHGRWMLDDVALPLAQRYPDDAWELVLGYDQEKLMGDRAAEAVVRSTRQAESIN” as the sequence, how does the “soluble on expression in E. coli” value read?
**A.** not soluble
